Source: patent publication US20120094909A1 (Bristol-Myers Squibb, published 2012)

Key:
[1] = target: T1, murine serum albumin (mouse, UniProt P07724 25-608); assay: kinetic analysis and direct binding ELISA (Table 18, FIG. 27)
T1 construct: also called MuSA; mouse serum albumin

[2] = target: rat serum albumin (rat, UniProt P02770 25-608); assay: as above
[3] = target: T2, human serum albumin (human, UniProt P02768 25-609); assay: kinetic analysis, HBS-P buffer
T2 construct: also called HSA
T2 sequence (P02768 25-609 limits assumed): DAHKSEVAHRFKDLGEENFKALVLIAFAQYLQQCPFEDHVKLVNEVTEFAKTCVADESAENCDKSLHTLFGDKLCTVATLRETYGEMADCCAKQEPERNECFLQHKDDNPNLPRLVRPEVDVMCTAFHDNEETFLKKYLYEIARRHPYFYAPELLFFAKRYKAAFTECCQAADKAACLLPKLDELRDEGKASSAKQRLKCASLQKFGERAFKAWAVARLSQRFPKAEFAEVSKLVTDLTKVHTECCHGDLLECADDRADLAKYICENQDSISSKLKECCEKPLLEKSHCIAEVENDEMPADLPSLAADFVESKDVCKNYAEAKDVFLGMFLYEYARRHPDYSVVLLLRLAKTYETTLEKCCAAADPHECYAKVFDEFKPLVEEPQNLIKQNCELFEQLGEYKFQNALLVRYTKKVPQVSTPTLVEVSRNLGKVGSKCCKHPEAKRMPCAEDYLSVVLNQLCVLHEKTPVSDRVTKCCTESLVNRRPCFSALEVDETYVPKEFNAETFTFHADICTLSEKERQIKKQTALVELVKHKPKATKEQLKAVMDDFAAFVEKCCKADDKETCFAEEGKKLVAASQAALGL

[4] = target: T3, rhesus serum albumin (rhesus, UniProt Q28522 17-600); assay: kinetic analysis, HBS-P buffer
T3 construct: also called RhSA
T3 sequence (Q28522 17-600 limits assumed): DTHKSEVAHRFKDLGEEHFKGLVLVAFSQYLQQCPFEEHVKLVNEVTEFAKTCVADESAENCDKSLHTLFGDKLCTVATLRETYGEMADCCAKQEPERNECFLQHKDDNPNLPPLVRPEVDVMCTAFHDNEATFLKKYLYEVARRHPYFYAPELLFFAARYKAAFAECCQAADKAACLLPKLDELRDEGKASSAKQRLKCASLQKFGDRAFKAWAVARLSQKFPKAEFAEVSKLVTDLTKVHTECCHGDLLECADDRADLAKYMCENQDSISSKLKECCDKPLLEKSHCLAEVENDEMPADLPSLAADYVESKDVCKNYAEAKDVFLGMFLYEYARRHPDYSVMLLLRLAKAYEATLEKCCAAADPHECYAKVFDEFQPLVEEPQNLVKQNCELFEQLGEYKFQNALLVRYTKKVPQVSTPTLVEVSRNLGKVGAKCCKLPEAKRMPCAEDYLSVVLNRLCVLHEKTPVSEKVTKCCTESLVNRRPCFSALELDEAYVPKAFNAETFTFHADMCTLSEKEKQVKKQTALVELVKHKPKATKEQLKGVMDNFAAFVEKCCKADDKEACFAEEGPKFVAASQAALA

[5] = target: T4, human serum albumin (human, UniProt P02768 25-609); assay: SPR (Biacore), albumin captured on chip, SABA in flow; n = 9
T4 construct: also called HSA
Procedure: (§1) The kinetics of selected SABA clones purified from HTPP and/or midscaled material described in Examples 5A and 5B were determined by capturing the respective serum albumin (HSA/RhSA/MuSA) on the surface of a Biasensor CMS chip and flowing a concentration series of SABAs over both the reference flow cell and the captured albumins. In addition, binding to albumin was carried out under various pH conditions ranging from pH 5.5 to pH 7.4.
T4 sequence (P02768 25-609 limits assumed): as the sequence (P02768 25-609 limits assumed) above

[6] = target: T5, rhesus serum albumin (rhesus, UniProt Q28522 17-600); assay: SPR (Biacore), albumin captured on chip, SABA in flow
T5 construct: also called RhSA
Procedure: as §1
T5 sequence (Q28522 17-600 limits assumed): as the sequence (Q28522 17-600 limits assumed) above

[7] = target: T4, human serum albumin; assay: as above
Procedure: as §1

[8] = target: T5, rhesus serum albumin; assay: SPR (Biacore), albumin captured on chip, SABA in flow; n = 4
Procedure: as §1

[9] = target: T5, rhesus serum albumin; assay: kinetic binding analysis in MES buffer, pH 5.5
[10] = target: T4, human serum albumin; assay: kinetic binding analysis in MES buffer, pH 5.5
[11] = target: T6, murine serum albumin (mouse, UniProt P07724 25-608); assay: kinetic binding analysis in HBS-P buffer, 25 °C
T6 construct: also called MuSA; Mouse

[12] = target: T5, rhesus serum albumin; assay: kinetic binding analysis in HBS-P buffer, 25 °C
[13] = target: T4, human serum albumin; assay: kinetic binding analysis in HBS-P buffer, 25 °C
[14] = target: T5, rhesus serum albumin; assay: kinetic binding analysis in MES buffer, pH 7.4
[15] = target: T4, human serum albumin; assay: kinetic binding analysis in MES buffer, pH 7.4
[16] = target: T5, rhesus serum albumin; assay: kinetic binding analysis in HBS-P buffer, 37 °C
[17] = target: T4, human serum albumin; assay: kinetic binding analysis in HBS-P buffer, 37 °C

Sequence of rat serum albumin (P02770 25-608 limits assumed): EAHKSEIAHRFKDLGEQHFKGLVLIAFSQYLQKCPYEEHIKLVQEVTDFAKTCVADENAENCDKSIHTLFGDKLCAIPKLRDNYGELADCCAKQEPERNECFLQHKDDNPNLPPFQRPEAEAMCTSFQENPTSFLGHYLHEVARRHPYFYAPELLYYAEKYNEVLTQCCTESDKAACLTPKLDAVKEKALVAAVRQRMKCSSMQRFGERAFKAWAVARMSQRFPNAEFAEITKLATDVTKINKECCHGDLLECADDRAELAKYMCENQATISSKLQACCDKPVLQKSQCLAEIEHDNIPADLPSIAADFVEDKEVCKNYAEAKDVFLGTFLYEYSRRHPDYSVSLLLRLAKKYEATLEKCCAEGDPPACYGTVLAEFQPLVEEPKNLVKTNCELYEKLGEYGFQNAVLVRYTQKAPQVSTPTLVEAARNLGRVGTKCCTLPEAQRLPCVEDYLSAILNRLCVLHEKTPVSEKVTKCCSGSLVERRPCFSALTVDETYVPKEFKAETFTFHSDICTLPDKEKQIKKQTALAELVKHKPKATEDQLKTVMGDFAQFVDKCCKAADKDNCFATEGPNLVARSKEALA

B1: SABA1.2 (designed binder)
chain: MGVSDVPRDLEVVAATPTSLLISWHSYYEQNSYYRITYGETGGNSPVQEFTVPYSQTTATISGLKPGVDYTITVYAVYGSKYYYPISINYRTEIEDEDEDEDED
notes: core 1 10Fn3 with (ED)5 extension
binding result [1]: no binding (tested: up to 1 µM)
binding result [2]: no binding (tested: up to 1 µM)
fold increase in affinity at 37 C against 25 C [3]: ~2 fold
affinity at 37 C relative to 25 C [4]: 0.5 fold

B2: SABA1.1 (designed binder)
chain: MGVSDVPRDLEVVAATPTSLLISWHSYYEQNSYYRITYGETGGNSPVQEFTVPYSQTTATISGLKPGVDYTITVYAVYGSKYYYPISINYRTEIDKPSQHHHHHH
notes: also called clone 1318H04
Kd [5]: 47.2 nM
koff [6]: 0.00545 s⁻¹
koff [7]: 0.000457 s⁻¹
Kd [8]: 778 nM

B3: SABA1.2 (designed binder)
chain: B1 chain
notes: It has no His tag; also called "core 1" 10Fn3 comprising an (ED)5 extension
Kd [9]: 359 nM
koff [9]: 0.00272 s⁻¹
kon [9]: 7570 M⁻¹ s⁻¹
Kd [10]: 28.6 nM
koff [10]: 0.00027 s⁻¹
kon [10]: 9440 M⁻¹ s⁻¹
binding result [11]: no binding (tested: up to 1 µM)
Kd [12]: 580 nM
koff [12]: 0.00378 s⁻¹
kon [12]: 6600 M⁻¹ s⁻¹
Kd [13]: 55.3 nM
koff [13]: 0.000443 s⁻¹
kon [13]: 8210 M⁻¹ s⁻¹
Kd [14]: 479 nM
koff [14]: 0.00295 s⁻¹
kon [14]: 6160 M⁻¹ s⁻¹
Kd [15]: 41.9 nM
koff [15]: 0.000388 s⁻¹
kon [15]: 9260 M⁻¹ s⁻¹
Kd [16]: 977 nM
koff [16]: 0.0185 s⁻¹
kon [16]: 18900 M⁻¹ s⁻¹
Kd [17]: 24.1 nM
koff [17]: 0.000815 s⁻¹
kon [17]: 33800 M⁻¹ s⁻¹
